Measurements from article PMC5773583, “Redundancy of protein disulfide isomerases in the catalysis of the inactivating disulfide switch in A Disintegrin and Metalloprotease 17” (Scientific Reports, 2018).
Bridge positions count the residues as written; N and C are the ends.

T1: PDIA6 C58S TRAP mutant (human, UniProt Q15084 20-440, C58S)
T1 construct: mature human PDIA6 with C58S (second cysteine of the CGHC motif of the a domain), in pET28
T1 sequence (looked up): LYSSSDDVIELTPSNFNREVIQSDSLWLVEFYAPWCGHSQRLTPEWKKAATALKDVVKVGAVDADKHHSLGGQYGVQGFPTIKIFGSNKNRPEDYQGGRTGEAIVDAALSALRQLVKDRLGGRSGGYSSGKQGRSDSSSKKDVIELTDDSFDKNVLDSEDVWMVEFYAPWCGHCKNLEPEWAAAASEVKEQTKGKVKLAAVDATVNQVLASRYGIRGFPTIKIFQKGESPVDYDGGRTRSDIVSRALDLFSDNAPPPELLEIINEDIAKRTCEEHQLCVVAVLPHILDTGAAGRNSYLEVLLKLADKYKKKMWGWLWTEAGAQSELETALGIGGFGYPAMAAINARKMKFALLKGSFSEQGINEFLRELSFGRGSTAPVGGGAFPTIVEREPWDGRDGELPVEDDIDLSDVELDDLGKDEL

T2: PDIA6 double TRAP mutant (2 TRAP) C58S C193S (human, UniProt Q15084 20-440, C58S | C193S)
T2 construct: mature human PDIA6 with C58S and C193S, in pET28; also called PDIA6 C58S C193S; PDIA6_2 TRAP
T2 sequence (looked up): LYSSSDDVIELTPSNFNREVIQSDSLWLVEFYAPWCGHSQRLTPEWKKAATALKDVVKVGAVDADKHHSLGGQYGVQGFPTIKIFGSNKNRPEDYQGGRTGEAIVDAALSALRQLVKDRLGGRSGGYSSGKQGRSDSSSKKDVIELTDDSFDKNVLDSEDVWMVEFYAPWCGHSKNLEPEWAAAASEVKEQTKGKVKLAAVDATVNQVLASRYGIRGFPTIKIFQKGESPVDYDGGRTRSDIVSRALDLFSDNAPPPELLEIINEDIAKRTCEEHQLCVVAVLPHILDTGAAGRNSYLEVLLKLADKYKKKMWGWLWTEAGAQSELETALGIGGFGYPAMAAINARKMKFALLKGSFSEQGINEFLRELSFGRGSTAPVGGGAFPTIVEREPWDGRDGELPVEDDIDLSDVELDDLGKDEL

T3: protein disulfide isomerase PDIA3 (human, UniProt P30101 25-505)
T3 construct: mature human PDIA3 (MW 56.6 kDa), cloned into pET28; Monomeric by SEC-MALS; also called Erp57
T3 sequence (looked up): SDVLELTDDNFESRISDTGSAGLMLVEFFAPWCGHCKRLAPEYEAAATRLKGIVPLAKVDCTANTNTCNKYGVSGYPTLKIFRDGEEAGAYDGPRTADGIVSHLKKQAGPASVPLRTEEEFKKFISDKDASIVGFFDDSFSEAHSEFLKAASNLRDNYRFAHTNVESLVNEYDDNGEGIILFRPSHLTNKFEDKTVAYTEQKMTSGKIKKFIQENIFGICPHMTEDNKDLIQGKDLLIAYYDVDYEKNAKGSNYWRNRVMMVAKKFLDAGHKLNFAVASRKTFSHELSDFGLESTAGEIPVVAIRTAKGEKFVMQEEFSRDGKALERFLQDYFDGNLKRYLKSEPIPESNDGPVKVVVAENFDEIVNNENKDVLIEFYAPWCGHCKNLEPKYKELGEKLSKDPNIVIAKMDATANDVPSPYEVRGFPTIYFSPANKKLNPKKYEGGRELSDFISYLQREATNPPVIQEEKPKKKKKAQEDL

T4: PDIA6 C193S TRAP mutant (human, UniProt Q15084 20-440, C193S)
T4 construct: mature human PDIA6 with C193S (second cysteine of the CGHC motif of the a' domain), in pET28
T4 sequence (looked up): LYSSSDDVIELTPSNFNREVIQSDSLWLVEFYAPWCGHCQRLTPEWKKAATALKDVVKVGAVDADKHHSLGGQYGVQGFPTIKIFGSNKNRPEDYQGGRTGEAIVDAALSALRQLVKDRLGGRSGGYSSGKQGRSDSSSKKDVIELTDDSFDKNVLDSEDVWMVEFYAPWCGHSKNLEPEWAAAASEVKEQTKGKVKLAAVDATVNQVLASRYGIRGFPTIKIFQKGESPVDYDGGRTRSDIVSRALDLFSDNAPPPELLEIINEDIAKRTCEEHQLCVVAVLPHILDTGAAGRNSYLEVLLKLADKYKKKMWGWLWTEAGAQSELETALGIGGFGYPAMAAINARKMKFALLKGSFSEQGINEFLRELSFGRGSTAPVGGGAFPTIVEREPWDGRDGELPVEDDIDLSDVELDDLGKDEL

T5: PDIA6 inverse TRAP mutant C55S C190S (human, UniProt Q15084 20-440, C55S | C190S)
T5 construct: mature human PDIA6 with the N-terminal cysteines of both CGHC motifs exchanged (C55S, C190S), in pET28; also called PDIA6 C55S C190S
T5 sequence (looked up): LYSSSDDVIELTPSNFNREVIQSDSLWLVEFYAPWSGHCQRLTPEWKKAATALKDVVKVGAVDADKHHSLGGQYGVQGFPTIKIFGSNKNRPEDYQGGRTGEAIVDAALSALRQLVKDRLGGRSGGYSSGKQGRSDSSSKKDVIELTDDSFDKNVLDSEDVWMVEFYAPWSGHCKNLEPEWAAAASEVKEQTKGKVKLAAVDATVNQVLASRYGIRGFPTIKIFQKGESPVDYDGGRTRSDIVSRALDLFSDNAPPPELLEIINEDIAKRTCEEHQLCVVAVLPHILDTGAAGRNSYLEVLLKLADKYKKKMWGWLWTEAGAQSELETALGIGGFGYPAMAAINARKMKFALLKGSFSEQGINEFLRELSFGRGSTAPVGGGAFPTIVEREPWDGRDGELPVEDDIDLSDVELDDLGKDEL

T6: PDIA6 C55S C58S mutant (human, UniProt Q15084 20-440, C55S | C58S)
T6 construct: mature human PDIA6 with both cysteines of the a domain exchanged (C55S, C58S), in pET28
T6 sequence (looked up): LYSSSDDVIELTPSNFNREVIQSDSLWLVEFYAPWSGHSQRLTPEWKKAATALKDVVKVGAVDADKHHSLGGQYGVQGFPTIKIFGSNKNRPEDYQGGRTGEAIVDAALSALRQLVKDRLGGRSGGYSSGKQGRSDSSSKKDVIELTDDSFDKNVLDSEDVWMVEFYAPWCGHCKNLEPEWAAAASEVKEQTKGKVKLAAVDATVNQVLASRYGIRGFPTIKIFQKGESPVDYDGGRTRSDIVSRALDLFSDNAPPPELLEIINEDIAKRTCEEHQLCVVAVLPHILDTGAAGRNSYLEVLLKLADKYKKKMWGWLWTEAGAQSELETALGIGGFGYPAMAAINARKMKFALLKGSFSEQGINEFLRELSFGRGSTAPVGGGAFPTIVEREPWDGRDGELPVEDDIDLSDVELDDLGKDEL

B1: protein disulfide isomerase PDIA6 (enzyme, human, UniProt Q15084 20-440, looked up)
chain: LYSSSDDVIELTPSNFNREVIQSDSLWLVEFYAPWCGHCQRLTPEWKKAATALKDVVKVGAVDADKHHSLGGQYGVQGFPTIKIFGSNKNRPEDYQGGRTGEAIVDAALSALRQLVKDRLGGRSGGYSSGKQGRSDSSSKKDVIELTDDSFDKNVLDSEDVWMVEFYAPWCGHCKNLEPEWAAAASEVKEQTKGKVKLAAVDATVNQVLASRYGIRGFPTIKIFQKGESPVDYDGGRTRSDIVSRALDLFSDNAPPPELLEIINEDIAKRTCEEHQLCVVAVLPHILDTGAAGRNSYLEVLLKLADKYKKKMWGWLWTEAGAQSELETALGIGGFGYPAMAAINARKMKFALLKGSFSEQGINEFLRELSFGRGSTAPVGGGAFPTIVEREPWDGRDGELPVEDDIDLSDVELDDLGKDEL
notes: mature human PDIA6 (MW 48.8 kDa), cloned into pET28; Dimer in solution by SEC-MALS; also called Erp5; wild-type PDIA6

Columns and labels:
PDIA6 C58S TRAP mutant = target: T1, PDIA6 C58S TRAP mutant; assay: MST; RED-NHS-labelled MPD constant at 20 nM, unlabelled PDI titrated (7.5 uM to 0.9537 nM, 1:2 series, 16 dilutions); PBS-P (PBS, 0.01% P20, pH 7.4), 25 °C; KD from the ligand-induced change of the initial fluorescence intensity; settings: both partners purified
[1] = target: T2, PDIA6 double TRAP mutant (2 TRAP) C58S …; assay: as above; settings: both partners purified
[2] = target: T3, protein disulfide isomerase PDIA3; assay: as above; settings: both partners purified
PDIA6 C193S TRAP mutant = target: T4, PDIA6 C193S TRAP mutant; assay: as above; settings: both partners purified
[3] = target: T5, PDIA6 inverse TRAP mutant C55S C190S; assay: as above; settings: both partners purified
[4] = target: B1; assay: as above; settings: both partners purified
[5] = target: T7, protein disulfide isomerase PDIA1 (human, UniProt P07237 18-508); assay: as above; settings: both partners purified
T7 construct: mature human PDIA1 (MW 57.6 kDa), cloned into pET28; Monomeric by SEC-MALS

PDIA6 C55S C58S mutant = target: T6, PDIA6 C55S C58S mutant; assay: as above; settings: both partners purified
[6] = target: the molecule itself; assay: SEC-MALS; Superdex 200 10/300 GL, 0.5 ml/minute, PBS pH 7.4; 100–500 µg protein per analysis

T7 sequence (P07237 18-508): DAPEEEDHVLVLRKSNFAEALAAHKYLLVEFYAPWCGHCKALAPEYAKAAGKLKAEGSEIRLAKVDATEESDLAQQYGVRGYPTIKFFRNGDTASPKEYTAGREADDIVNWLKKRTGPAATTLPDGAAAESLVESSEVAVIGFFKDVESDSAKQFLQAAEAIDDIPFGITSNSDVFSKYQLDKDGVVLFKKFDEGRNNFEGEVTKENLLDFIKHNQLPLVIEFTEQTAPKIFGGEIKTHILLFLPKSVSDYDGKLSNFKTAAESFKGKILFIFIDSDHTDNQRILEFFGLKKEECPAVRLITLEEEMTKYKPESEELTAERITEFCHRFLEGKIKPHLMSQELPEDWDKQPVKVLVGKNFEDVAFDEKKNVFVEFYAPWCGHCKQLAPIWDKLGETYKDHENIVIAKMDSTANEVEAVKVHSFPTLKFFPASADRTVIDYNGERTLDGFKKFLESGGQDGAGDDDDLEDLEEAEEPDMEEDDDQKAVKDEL

Binder	Kd (PDIA6 C58S TRAP mutant)	Kd [1]	Kd [2]	Kd (PDIA6 C193S TRAP mutant)	Kd [3]	Kd [4]	Kd [5]	Kd (PDIA6 C55S C58S mutant)	stoichiometry N [6]
open membrane-proximal domain (opMPD) of A Disintegrin and Metalloprotease 17 (ADAM17) (domain or fragment, UniProt P78536 581-642, looked up, disulfide 20-50, 55-61; also: labelled on amines with RED-NHS dye, membrane-proximal domain of ADAM17, open isomer, recombinant, 9.9 kDa; also called open conformation of the MPD) FCEREQQLESCACNETDNSCKVCCRDLSGRCVPYVDAEQKNLFLRKGKPCTVGFCDMNGKCE	141 nM	192 nM	90 nM	142 nM	115 nM	93 nM	158 nM	138 nM	–
B1	–	–	–	–	–	–	–	–	2
closed membrane-proximal domain (clMPD) of A Disintegrin and Metalloprotease 17 (ADAM17) (domain or fragment, UniProt P78536 581-642, looked up, disulfide 20-55, 50-61; also: labelled on amines with RED-NHS dye, membrane-proximal domain of ADAM17, closed disulfide isomer; it is the disulfide isomer of m9 and probably carries the same tag; also called closed MPD; closed isoform) FCEREQQLESCACNETDNSCKVCCRDLSGRCVPYVDAEQKNLFLRKGKPCTVGFCDMNGKCE	113 nM	151 nM	55 nM	91 nM	116 nM	61 nM	211 nM	191 nM	–
